From US20260274985A1 (MYTHIC THERAPEUTICS, published 2026)
Where a chain is given by its changes, count along the chain named.

Experiments:
[1] = biological target: TROP2 on TROP2-positive NCI-H1975 cells (human) (UniProt P09758); assay: cell-based or functional assay; settings: scale: % greater cytotoxicity compared to WT datopotamab
[2] = biological target: T1, Human TROP2 Protein, His Tag (Acro Biosystems) (human, UniProt P09758 27-274); assay: BLI (Octet) [1/2]
T1 construct: Bought antigen used at 50 nM in the Octet screen; also called TACSTD2; not shown: His tag
T1 sequence (looked up): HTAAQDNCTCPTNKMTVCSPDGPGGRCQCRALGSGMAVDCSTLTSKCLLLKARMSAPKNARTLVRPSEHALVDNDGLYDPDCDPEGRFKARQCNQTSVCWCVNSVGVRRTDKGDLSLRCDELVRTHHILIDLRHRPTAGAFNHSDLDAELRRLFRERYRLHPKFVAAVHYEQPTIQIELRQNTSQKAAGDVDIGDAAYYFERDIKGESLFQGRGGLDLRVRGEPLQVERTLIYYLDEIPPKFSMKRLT
In short: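 Antibody variants from day-4 expression supernatants, diluted in 1×PBST pH 7.4 by expression level, captured on anti-human Fc tips. Association with 50 nM human TROP2-His in PBST pH 7.4 for 120 sec; dissociation in PBST pH 7.4 or pH 5.4 for 300 sec. Curves examined for koff at each pH versus parent antibody.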

[3] = biological target: T2, Human TROP2 Protein, His Tag (Acro Biosystems) (human, UniProt P09758 27-274); assay: BLI (Octet)
T2 construct: Bought protein; also called TACSTD2; not shown: His tag
T2 sequence: T1 sequence (looked up)

[4] = biological target: T1, Human TROP2 Protein, His Tag (Acro …); assay: Octet BLI, IgG on anti-human Fc sensor, 50 nM TROP2; 1 = pH dependent
[5] = biological target: T3, TROP2 on TROP2-positive NCI-H1975 cells (human, UniProt P09758 27-323); assay: binding to NCI-H1975 cells at pH 6.4, maximal MFI
T3 construct: Endogenous TROP2 of the human NCI-H1975 cell line; also called TACSTD2
T3 sequence: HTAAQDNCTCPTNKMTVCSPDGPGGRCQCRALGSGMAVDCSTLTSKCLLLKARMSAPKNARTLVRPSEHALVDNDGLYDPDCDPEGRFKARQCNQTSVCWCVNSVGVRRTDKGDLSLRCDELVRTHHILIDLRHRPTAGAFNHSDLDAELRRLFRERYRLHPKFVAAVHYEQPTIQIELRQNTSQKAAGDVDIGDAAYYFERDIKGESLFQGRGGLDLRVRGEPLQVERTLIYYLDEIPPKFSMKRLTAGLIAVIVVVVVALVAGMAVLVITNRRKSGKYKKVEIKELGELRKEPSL

[6] = biological target: T4, Human TROP2 Protein, His Tag, Acro Biosystems (human, UniProt P09758 27-274); assay: Octet (BLI)
T4 construct: Bought protein; not shown: His tag
T4 sequence: T1 sequence (looked up)

[7] = biological target: T3, TROP2 on TROP2-positive NCI-H1975 cells; assay: cell-based or functional assay
[8] = biological target: T5, Human TROP2 Protein, His Tag (human, UniProt P09758 27-274); assay: BLI (Octet), IgG on anti-human Fc sensor, 50 nM human TROP2-His; legend: 1 = pH dependent
T5 construct: Bought protein; also called TACSTD2; not shown: His tag
T5 sequence (looked up): T1 sequence (looked up)

[9] = biological target: T6, Human TROP2 Protein, His Tag (Acro Biosystems) (human, UniProt P09758 27-274); assay: BLI (Octet) [1/2]
T6 construct: also called TACSTD2; not shown: His tag
T6 sequence (looked up): T1 sequence (looked up)

[10] = biological target: T3, TROP2 on TROP2-positive NCI-H1975 cells; assay: cell-based or functional assay; remark: listed apart in the source
[11] = biological target: T7, Human TROP2 Protein, His Tag (Acro Biosystems) (human, UniProt P09758 27-274); assay: BLI (Octet) [2/2]
T7 construct: not shown: His tag
T7 sequence (looked up): T1 sequence (looked up)

[12] = biological target: T8, Human TROP2 Protein, His Tag (Acro Biosystems) (human, UniProt P09758 27-274); assay: BLI (Octet)
T8 construct: not shown: His tag
T8 sequence (looked up): T1 sequence (looked up)

[13] = biological target: T9, Human TROP2 Protein, His Tag (Acro Biosystems) (human, UniProt P09758 27-274); assay: BLI (Octet), Ab on anti-human Fc sensor, 50 nM TROP2-His; 1 = pH dependent
T9 construct: Bought protein; not shown: His tag
T9 sequence (looked up): T1 sequence (looked up)
Protocol: After allowing for four days of protein expression, cell culture supernatants were collected, quantified by SDS-PAGE analysis (DNS), and the pH dependence of the variant was evaluated using biolayer interferometry (BLI) on an Octet RED 96e instrument. Briefly, cell culture supernatants were diluted based on qualitative expression level of the variant determined by visual examination of SDS-PAGE gels, 5 μL of cell culture supernatant was diluted into 195 μL of 1×PBST, pH 7.4 for high expressors, 25 μL of cell culture supernatant was diluted into 175 μL of 1×PBST, pH 7.4 for medium expressors and 100 μL of cell culture supernatant was diluted into 100 μL of 1×PBST, pH 7.4 for low expressors for loading onto the sensor tips. The resulting diluted supernatants were then captured on an anti-human Fc sensor (Forte Bio). A baseline was established using 1×PBST (50 mM Potassium Phosphate Buffer+150 mM NaCl+0.05% Tween 20) pH 7.4, and the sensor was associated with 50 nM of TROP2 (Human TROP2 Protein, His Tag, Acro Biosystems) in 1×PBST pH 7.4 for 120 sec to generate an association curve. In the dissociation phase, the antibody-antigen complex on the sensor was exposed to 1×PBST pH 7.4 or pH 5.4, for 300 sec. […]

B1: MYT11741 (antibody, V domains shown)
VH: QVQLQESGPGLVKPSETLSLTCTVSGGSISSYGVHWIRQPPGKGLEWIGVIWTSGVTDYNSALMGRVTISVDTSKNQFSLKLSSVTAADTAVYYCARDGDYDRYTHDYWGQGTLVTVSS
VL: DIVMTQSPDSLAVSLGERATINCRASKSVSTSGYSYMHWYQQKPGQPPKLLIYLASNLESGVPDRFSGSGSGTDFTLTISSLQAEDVAVYYCQHSRELPYTFGQGTKLEIK
cytotoxicity on TROP2-positive NCI-H1975 cells (antibody complexed to secondary antibody-MMAF, cell titer glow assay) [1]: 30
binding result [2]: binds

B2: MYT12408 (hu7E6SVG variant, HCV substitutions at 33, 34) (antibody, V domains shown)
VH: B1 VH with G33H, V34H, H106M
VL: B1 VL
binding result [3]: binds

B3: MYT12409 (hu7E6SVG variant, HCV substitutions at 33, 51) (antibody, V domains shown)
VH: B1 VH with G33H, I51H, H106M
VL: B1 VL
binding result [3]: binds

B4: MYT11773 (antibody, V domains shown)
VH: B1 VH with H106M
VL: B1 VL with Y100H
notes: hu7E6SVG variant, His at LCV position 100 (L3 08); screened as IgG in Expi293 supernatant
binding result [4]: binds

B5: MYT11566 (WT sacituzumab variable regions) (antibody, human IgG1, V domains shown)
VH: QVQLQQSGSELKKPGASVKVSCKASGYTFTNYGMNWVKQAPGQGLKWMGWINTYTGEPTYTDDFKGRFAFSLDTSVSTAYLQISSLKADDTAVYFCARGGFGSSYWYFDVWGQGSLVTVSS
VL: DIQLTQSPSSLSASVGDRVSITCKASQDVSIAVAWYQQKPGKAPKLLIYSASYRYTGVPDRFSGSGSGTDFTLTISSLQPEDFAVYYCQQHYITPLTFGAGTKVEIK
notes: Human IgG1 heavy chain constant domain and Kappa light chain constant domain; also called Sacituzumab WT
Max MFI (@ pH 6.4)-H1975 [5]: 29500 MFI
Kd [6]: 0.6 nM

B6: MYT11635 (WT datopotamab variable regions) (antibody, human IgG1, V domains shown)
VH: QVQLVQSGAEVKKPGASVKVSCKASGYTFTTAGMQWVRQAPGQGLEWMGWINTHSGVPKYAEDFKGRVTISADTSTSTAYLQLSSLKSEDTAVYYCARSGFGSSYWYFDVWGQGTLVTVSS
VL: B5 VL with L4M, S20T, I31T, D60S, A100Q, V104L
notes: Human IgG1 heavy chain constant domain and Kappa light chain constant domain; also called Datopotamab WT
Max MFI (@ pH 6.4)-H1975 [5]: 25900 MFI
Kd [6]: 1.25 nM
Cytotox Fold over datopotamab (FOD) [7]: 1 fold over datopotamab

B7: MYT11687 (antibody, V domains shown)
VH: B6 VH
VL: B5 VL with L4M, S20T, I31T, A34H, D60S, A100Q, V104L
notes: IgG from supernatant; His at LCV position 34; also called datopotamab variant L1 11
binding result [8]: binds

B8: MYT13250 (antibody, V domains shown)
VH: B5 VH with Y60H
VL: B5 VL with S52H, I93H
notes: Sacituzumab HC-LC pairing variant
binding result [9]: binds

B9: MYT11688 (antibody, V domains shown)
VH: B6 VH
VL: B5 VL with L4M, S20T, I31T, S50H, D60S, A100Q, V104L
notes: IgG from supernatant; His at LCV position 50; also called datopotamab variant L2 01
binding result [8]: binds

B10: MYT13251 (antibody, V domains shown)
VH: B5 VH with D62H
VL: B5 VL with S52H, I93H
notes: as for B8
binding result [9]: binds

B11: MYT13425 (antibody, human IgG1, V domains shown)
VH: B5 VH with D62H
VL: B5 VL with S30H, A51H, I93H
notes: also called sacituzumab HC-LC pairing variant; Sacituzumab pH variant
FOW H1975 (10 nM) [10]: 1.94 fold over parent antibody
Max MFI (@ pH 6.4)-H1975 [5]: 11200 MFI
Kd [6]: 3.99 nM
Cytotox Fold over datopotamab (FOD) [7]: 1.39 fold over datopotamab

B12: MYT13257 (antibody, V domains shown)
VH: B6 VH with R98H
VL: B5 VL with L4M, S20T, V29H, I31T, D60S, A100Q, V104L
notes: Full-length IgG from Expi293 supernatant; also called datopotamab heavy chain and light chain pairing variant
binding result [11]: binds

B13: MYT12388 (antibody, V domains shown)
VH: B6 VH
VL: B5 VL with L4M, S20T, D28H, I31T, A51H, D60S, A100Q, V104L
notes: datopotamab VL 28, 51 substituted
binding result [12]: binds

B14: MYT11616 (antibody, V domains shown)
VH: B5 VH
VL: B5 VL with A32H
notes: Sacituzumab variant, His at LCV position 32 (L1 09)
binding result [13]: binds

B15: MYT11619 (antibody, V domains shown)
VH: B5 VH
VL: B5 VL with S50H
notes: Sacituzumab variant, His at LCV position 50 (L2 01)
binding result [13]: binds
